Data from patent publication US20200181261A1 (Bayer, published 2020).

Key:
[1] = molecular target: T1, Macaca fascicularis CEACAM6-Domain 1-His (expressed in E. coli) (Macaca fascicularis); experiment: SPR, antibody captured, antigen as analyte
T1 construct: entry includes the His tag; also called TPP-2453; Recombinant single domain 1 of Macaca fascicularis CEACAM6
T1 chain: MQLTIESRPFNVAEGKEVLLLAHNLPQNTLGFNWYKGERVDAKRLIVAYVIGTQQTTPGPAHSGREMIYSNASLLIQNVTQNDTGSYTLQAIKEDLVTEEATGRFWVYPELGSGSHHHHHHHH
Method: (§1) Surface plasmon resonance (SPR) experiments for quantitative binding analyses were performed either using a Biacore T100, Biacore T200 or a Biacore 4000 instrument (GE Healthcare Biacore, Inc.) equipped with Series S Sensor Chips CM5 (GE Healthcare Biacore, Inc.). Binding assays were carried out at 25° C. with assay buffer HBS-EP+(10 mM HEPES pH 7.4, 150 mM NaCl, 3 mM EDTA, 0.05% Surfactant P20). Antibodies were captured with an anti-hIgG capture antibody covalently immobilized to the chip surface via amine coupling chemistry. Reagents for amine coupling (1-ethyl-3-(3-dimethylaminopropyl) carbodiimide hydrochloride (EDC), N-hydroxysuccinimide (NHS), ethanolamine-HCl pH 8.5) were used from the Amine Coupling Kit (GE Healthcare, product code BR-1000-50). Anti-hIgG, anti-mIgG capture antibodies and immobilization buffer (10 mM sodium acetate pH 5.0) were used from the Human Antibody Capture Kit (GE Healthcare, BR-1008-39) and the Mouse Antibody Capture Kit (GE Healthcare, BR-1008-38), respectively. The sensor chip surface was activated with a freshly prepared solution of 0.2 M EDC and 0.05 M NHS passed over the chip surface for 420 s at a flow rate of 10 μl/min, followed by an injection of anti-hIgG or anti-mIgG capture antibody (dissolved to 25 μg/ml in immobilization buffer) for 180 s at a flow rate of […]. Excess of activated groups were blocked with a 1 molar solution of ethanolamine injected at a flow rate of 10 μl/min for 420 s.
(§2) CEACAM antigens were used as analyte to determine KD values. Antibodies were captured for 20 s at a flow rate of 10 μl/min prior to each analyte injection.

[2] = molecular target: T2, Human CEACAM6-Domain 1-His (expressed in E. coli), wild-type (human); experiment: SPR, antibody captured, antigen as analyte
T2 construct: entry includes the His tag; also called hDOM1
T2 chain: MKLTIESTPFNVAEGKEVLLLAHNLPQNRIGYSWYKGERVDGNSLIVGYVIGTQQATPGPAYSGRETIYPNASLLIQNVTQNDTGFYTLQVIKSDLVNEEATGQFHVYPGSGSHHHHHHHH
Method: as §1, §2

[3] = molecular target: T3, human CEACAM1, extracellular (mature form), R&D Systems 2244-CM (human, UniProt P13688 35-428); experiment: SPR, antibody captured, antigen as analyte
T3 construct: used biotinylated in some assays; also called TPP-1437; hC1
T3 sequence: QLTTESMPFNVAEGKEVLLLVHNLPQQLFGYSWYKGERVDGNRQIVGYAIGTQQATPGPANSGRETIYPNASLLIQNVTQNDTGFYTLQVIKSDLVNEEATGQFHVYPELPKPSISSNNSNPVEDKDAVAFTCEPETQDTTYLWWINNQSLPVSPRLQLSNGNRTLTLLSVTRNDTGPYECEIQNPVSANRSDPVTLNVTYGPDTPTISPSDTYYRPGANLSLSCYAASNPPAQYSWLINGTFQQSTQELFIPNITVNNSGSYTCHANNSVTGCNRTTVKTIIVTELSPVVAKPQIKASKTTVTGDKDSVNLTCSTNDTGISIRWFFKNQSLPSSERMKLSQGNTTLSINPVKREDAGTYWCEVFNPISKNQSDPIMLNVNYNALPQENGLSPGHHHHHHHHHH

[4] = molecular target: T4, human CEACAM1, full-length, on transfected HeLa cells (human, UniProt P13688 35-526); experiment: FACS, transfected HeLa cells
T4 construct: also called TPP-4185; HeLa human CEACAM1
T4 sequence: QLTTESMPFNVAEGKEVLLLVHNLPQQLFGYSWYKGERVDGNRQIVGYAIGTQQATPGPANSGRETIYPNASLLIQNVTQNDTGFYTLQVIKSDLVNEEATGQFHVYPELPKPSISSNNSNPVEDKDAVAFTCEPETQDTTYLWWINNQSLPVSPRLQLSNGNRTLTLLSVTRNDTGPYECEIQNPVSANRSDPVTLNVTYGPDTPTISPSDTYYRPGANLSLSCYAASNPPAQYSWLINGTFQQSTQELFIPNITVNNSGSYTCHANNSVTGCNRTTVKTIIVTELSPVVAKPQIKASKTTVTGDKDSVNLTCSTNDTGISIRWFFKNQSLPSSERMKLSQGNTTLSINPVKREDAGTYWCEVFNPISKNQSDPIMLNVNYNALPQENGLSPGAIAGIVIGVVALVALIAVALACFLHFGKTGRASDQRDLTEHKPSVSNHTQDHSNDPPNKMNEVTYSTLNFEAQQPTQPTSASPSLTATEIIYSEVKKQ
Summary of the method: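 Antibody binding to transfected HeLa cells was measured by FACS on a Canto II or FACS Array instrument. For half maximal binding (EC₅₀), primary antibodies were titrated from 0.1 nM to 100 nM. Median fluorescence intensity was plotted against log concentration, and curves were fitted in Graph Pad prism. Cells had been released with EDTA dissociation buffer and stained at 4° C.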

B1: TPP-3714 (antibody, human IgG2, kappa)
heavy: QVTLRESGPALVKPTQTLTLTCTFSGFSLSTYGIGVGWIRQPPGKALEWLAHIWWNDNKYYSTSLKTRLTISKDTSKNQVVLTMTNMDPVDTATYYCARISLPYFDYWGQGTLVTVSSASTKGPSVFPLAPCSRSTSESTAALGCLVKDYFPEPVTVSWNSGALTSGVHTFPAVLQSSGLYSLSSVVTVPSSNFGTQTYTCNVDHKPSNTKVDKTVERKCCVECPPCPAPPVAGPSVFLFPPKPKDTLMISRTPEVTCVVVDVSHEDPEVQFNWYVDGVEVHNAKTKPREEQFNSTFRVVSVLTVVHQDWLNGKEYKCKVSNKGLPAPIEKTISKTKGQPREPQVYTLPPSREEMTKNQVSLTCLVKGFYPSDIAVEWESNGQPENNYKTTPPMLDSDGSFFLYSKLTVDKSRWQQGNVFSCSVMHEALHNHYTQKSLSLSPG
light: DIQLTQSPSFLSASVGDRVTITCKASQNVGTAVAWYQQKPGKAPKLLIYSASNRYTGVPSRFSGSGSGTEFTLTISSLQPEDFATYYCQQYSSYPLTFGGGTKVEIKRTVAAPSVFIFPPSDEQLKSGTASVVCLLNNFYPREAKVQWKVDNALQSGNSQESVTEQDSKDSTYSLSSTLTLSKADYEKHKVYACEVTHQGLSSPVTKSFNRGEC
notes: humanized from TPP-2971, human IgG2; also called TPP-2971HU2-hIgG2Kappa
For B1, the Kd [1] was 3.2 nM, the Kd [2] was 3.7 nM and the binding result [3] was “no binding (tested: 200 nM)”. B1: no binding (tested: 5 µg/ml) [4].
